B1: 9A5 (combinatorial scFv clone of W3072-z4C12) (scFv, V domains shown)
VH: EVQLVESGGGLSQPGNSLQLSCEASGFTFSNHDLNWVRQAPGKGLEWVAYISSASGLISYADAVRGRFTISRDNAKNSLFLQMNNLKSEDTAMYYCARDPAYTGLYALDFWGQGTQVTVSS
VL: QPVLTQSPSASASLSGSVKLTCTLSSELSGFTIVWYQQRPDKAPKYVMYLKSDGSHSKGDGIPDRFSGSSSGAHRYLSISNVQSEDDATYFCGAGYTLANQYGWVFGSGTKVTVL
B2: 4B6 (scFv, V domains shown)
VH: EVQLVESGGGLSQPGNSLQLSCEASGFTFSNHDLNWVRQAPGKGLEWVAYISSASGLISYADAVRGRFTISRDNAKNSLFLQMNNLKSEDTAMYYCARDPAYTGLYALDFWGQGTQVTVSS
VL: QPVLTQSPSASASLSGSVKLTCTLSSELSNYTIVWYQQRPDKAPKYVMYLKSDGSHSKGDGIPDRFSGSSSGAHRYLSISNVQSEDDATYFCGAGYTLANQYGWVFGSGTKVTVL
B3: WBP330-hPro1.ECD.hFcHis (non-mutated) (Fc fusion)
chain: QGGTRSPRCDCAGDFHKKIGLFCCRGCPAGHYLKAPCTEPCGNSTCLVCPQDTFLAWENHHNSECARCQACDEQASQVALENCSAVADTRCGCKPGWFVECQVSQCVSSSPFYCQPCLDCGALHRHTRLLCSRRDTDCGTCLPGFYEHGDGCVSCPTSTLGSCPERCAAVCGWRQMF
notes: also called recombinant TNFRSF25 polypeptide; non-mutated WBP330-hPro1.ECD.hFcHis; not shown: human Fc and 6His tag (hFc-6His)

How the values were obtained:
TNFRSF25-Fc protein = target: T1, TNFRSF25-Fc protein (UniProt Q93038 25-199, biotinylated in the capture ELISA); assay: capture ELISA: scFv captured on anti-c-myc antibody, biotinylated TNFRSF25-Fc, streptavidin-HRP, OD450
T1 construct: also called TNFRSF25-Fc fusion protein; biotinylated antigen protein
T1 sequence (looked up): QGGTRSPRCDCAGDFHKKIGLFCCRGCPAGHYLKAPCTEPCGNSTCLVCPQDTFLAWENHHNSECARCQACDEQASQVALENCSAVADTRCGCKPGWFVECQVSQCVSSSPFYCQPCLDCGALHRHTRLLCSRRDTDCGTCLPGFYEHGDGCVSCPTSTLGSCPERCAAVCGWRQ

W330-cAb1.hIgG1(35783) = target: T2, W330-cAb1.hIgG1(35783); assay: ELISA: coated antibody at 5 ug/ml, TNFRSF25 ECD.hFcHis titrated, detection with anti-his-HRP, absorbance at 450 nm; the concentration is that of the TNFRSF25 fusion
T2 construct: Parent hamster anti-TNFRSF25 antibody made chimeric with human IgFc (hIgG1); also called chimeric anti-TNFRSF25 antibody; chimeric parent antibody

Binder | EC50 (read off the curve) (TNFRSF25-Fc protein) | EC50 (W330-cAb1.hIgG1(35783))
B1 | ~0.08 µg/mL | 
B2 | ~0.2 µg/mL | 
B3 |  | 4.76 µg/mL

— US20170355773A1 (PELICAN THERAPEUTICS, published 2017)
